Measured values published in patent publication US20220256794A1, “TERPENE SYNTHASES AND TRANSPORTERS” (The State of Israel, Ministry of Agriculture & Rural …, priority 2019, published 2022).

Assay: Terpene synthase activity assay with FPP
Assay type: biochemical
Details: TPS expressed in E. coli; 10 μM FPP, overnight at 30° C., SPME GC-MS
Protocol: Putative terpene synthase genes were synthesized by the TWIST Co., and cloned into Novagen pET-28a(+) with a 6×His tag at its' N-terminus. The recombinant plasmid was then sequenced for authentication and transformed into BL21(DE3) pLysS and pLysE strains of E. coli (Agilent Technologies) for heterologous expression. An overnight culture was used to inoculate a 20-200 mL culture, induced with 0.1 mM IPTG at an OD 600 nm >0,8 for initiation of recombinant protein translation then incubated at 18° C. and 250 RPM overnight. The cells were collected by centrifugation and the recombinant enzymes were extracted either as a crude extract or purified on a Ni-NTA agarose resin as previously described [Gonda I. et al., The Plant Journal (2013) 61, 458-472]. […]
For solid-phase microextraction (SPME) analysis, a 57298-U SPME fiber assembly Divinylbenzene/Carboxen/Polydimethylsiloxane (DVB/CAR/PDMS, Supelco) needle size 23 ga, StableFlex, was used with an autosampler and analyzed by GC-MS as previously described [Davidovich-Rikanati R. et al., Nature Biotech (2007) 25:899-901; Davidovich-Rikanati R. et al., Plant J (2008) 56:228-238]. […]

B1: 792-3: Cannabis terpene synthase gene product, amino acid SEQ ID NO: 8 (protein)
chain: MSYQVLASSQNDKVSKIVRPTTTYQPSIWGERFLQYSISDQDFSYKKQRVDELKEVVRREVFLECYDNVSYVLKIVDDVQRLGLSYHFENEIEKALQHIYDNTIHQNHKDEDLHDTSTRFRLLRQHGFMVSSNIFKIFKDEQGNFKECLITDILGLLSLYEASHLSYIGENILNEALAFTTTHLHQFVKNEKTHPLSNEVLLALQRPIRKSLERLHARHYISSYENKISHNKTLLELAKLDFNLLQCLHRKELSQISRWWKEIDFVHKLPFARDRIVELYLWLLGVFHEPELSLARIISTKVIALASVADDIYDAYGTFEELELLTESINRWDLNCADQLRPECLQTFYKVLLNCYEEFESELGKEESYKVYYAREAMKRLLGAYFSEARWLHEGYFPSFDEHLKVSLISCGYTMMIVTSLIGMKDCVTKQDFEWLSKDPKIMRDCNILCRFMDDIVSHKFEQQRDHSPSTVESYMRQYGVSEQEACDELRKQVINSWKEINKAFLRPSNVPYPVLSLVLNFSRVMDLLYKDGDGYTHIGKETKNSVVALLIDQIP
modifications: Terpene Synthase Gene Amino acid sequence of the 45 identified gene products
Sesquiterpenes produced with FPP: caryophyllene, humulene

B2: AG046-1: Cannabis terpene synthase gene product, amino acid SEQ ID NO: 36 (protein)
chain: MIITGVISSSTPIFKDQPAAIVRRSGNYKPTLWDAHFFQSLQVIYTEESYGKRINELKEDVRRILEKEAENPLVKLEQINDLSRLGISYHFEDQIKTILNLTFNNNNALWKKDNLYATALHFKLLRQYGFSPVSSEVFNAFKDEKKEFKESLSKDVKGMVCLYEASFYSFRGEPILDEARDFTTKHLKQYLMTRQSQFTRVDHHDDDDHDLVKLVEHALDLPLHWRLPRLEARWFIDMYAERNYDMNPTFLDFAKLDYNFVQSAYQKELKYISRWWSGSRLTERLPFARDRVVEIFYSAVALKYEAEFGFVRTVMTKIGLLLTLMDDIYDVYGTLDELQLFLEAIERWNINELDQLPDYMKILFVAFYNNVNEISYYVLKENGIHTIKYLKKALGDLCKCYMEEAKWFHSGHIPSLEEFIENGWKSITIPLCLIYHYCLITTSITEQDMEHLLQYPTILRVSGTVFRFIDDLGTSSDELERGDNPSSIQCYMREKGVSENESREHIWNLISEGWKEINEVKASNSPYSQVFIESAIDFVRGAMEMYHKGDGFGTNQDRYLKTKVVNMFFDPIPI
modifications: Terpene Synthase Gene Amino acid sequence of the 45 identified gene products
Sesquiterpenes produced with FPP: bisabolene
